Measured values published in patent publication US10160993B2, “Tyrosine kinase biosensors and methods of use” (Purdue Research Foundation, priority 2014, dated 2018).
No end group written: not given here. *: point of attachment. Biotin = O=C1N[C@H]2[C@H](CS[C@H]2CCCCC(=O)*)N1

Legend:
Type in all cases: biochemical
Abl = Abl (Homo sapiens, UniProt P00519); assay: ELISA specificity assay, phosphorylation by Abl; details: conditions similar to ALK ELISA
Experimental: (§1) Referring now to FIG. 1 which illustrates ALAStide-A (SEQ. ID NO. 1) and ALAStide-B (SEQ. ID NO. 2) being phosphorylated by ALK kinase in vitro, the results are obtained by an enzyme-linked immunosorbent assay (ELISA). […] Total reaction volume is 50 μL, and reaction temperature is set between 35-38° C. At selected time points, 5 μL, sample was taken out and quenched in 20 μL 40 mM EDTA solution. The quenched samples were then used to perform ELISA assay.
(§2) The specificity of the ALK-specific biosensors, ALAStide-A and ALAStide-B is shown in an ELISA assay, with YFF peptide used as a positive and negative control. The ALK-specific biosensors were assayed for phosphorylation activity against ALK, Lyn, Abl, and Csk. YFF peptide, whose kinase specificity (as reported in Biochemistry 44, 8533-8542, 2005) is used as a reference. The experimental condition may be similar to those described for the ELISA assay above.

Lyn = Lyn (Homo sapiens, UniProt P07948); assay: ELISA specificity assay, phosphorylation by Lyn; details: conditions similar to ALK ELISA
Lyn, sequence (P07948 whole entry, species assumed): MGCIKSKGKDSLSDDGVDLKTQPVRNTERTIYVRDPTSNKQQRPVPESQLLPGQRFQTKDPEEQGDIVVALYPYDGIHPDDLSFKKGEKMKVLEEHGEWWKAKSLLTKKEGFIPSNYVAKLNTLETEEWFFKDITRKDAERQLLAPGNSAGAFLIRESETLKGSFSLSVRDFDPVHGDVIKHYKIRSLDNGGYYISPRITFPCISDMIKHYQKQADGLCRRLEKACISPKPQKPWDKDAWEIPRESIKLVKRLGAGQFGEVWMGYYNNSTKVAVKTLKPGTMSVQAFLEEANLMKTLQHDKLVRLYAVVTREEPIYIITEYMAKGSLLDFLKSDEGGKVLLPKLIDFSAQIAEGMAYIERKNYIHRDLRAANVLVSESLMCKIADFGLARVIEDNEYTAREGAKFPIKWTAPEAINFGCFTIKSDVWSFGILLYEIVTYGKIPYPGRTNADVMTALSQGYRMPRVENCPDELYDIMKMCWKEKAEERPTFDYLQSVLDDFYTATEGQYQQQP
Experimental: as §1, §2

Csk = Csk (Homo sapiens, UniProt P41240); assay: ELISA specificity assay, phosphorylation by Csk; details: conditions similar to ALK ELISA
Csk, sequence (P41240 whole entry, species assumed): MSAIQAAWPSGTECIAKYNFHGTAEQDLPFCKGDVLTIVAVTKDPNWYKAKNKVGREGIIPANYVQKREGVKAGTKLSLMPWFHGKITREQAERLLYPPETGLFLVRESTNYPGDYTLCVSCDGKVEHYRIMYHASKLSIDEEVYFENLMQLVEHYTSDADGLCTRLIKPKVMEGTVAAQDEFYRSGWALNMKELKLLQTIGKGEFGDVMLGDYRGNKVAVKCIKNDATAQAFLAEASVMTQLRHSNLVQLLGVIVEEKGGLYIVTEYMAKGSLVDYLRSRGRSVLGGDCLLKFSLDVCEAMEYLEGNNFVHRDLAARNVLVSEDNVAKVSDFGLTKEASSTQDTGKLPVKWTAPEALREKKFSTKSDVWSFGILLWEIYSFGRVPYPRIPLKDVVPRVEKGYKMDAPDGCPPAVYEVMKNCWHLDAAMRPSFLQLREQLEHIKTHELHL
Experimental: as §1, §2

ALK kinase = ALK kinase (Homo sapiens, UniProt Q9UM73); assay: ELISA assay of peptide phosphorylation by ALK kinase in vitro; details: 25 μM peptides, 0.1 unit kinase, 100 μM ATP, 10 mM Mg2+, pH 7.5, 35-38° C.
ALK kinase, sequence (Q9UM73 19-1620): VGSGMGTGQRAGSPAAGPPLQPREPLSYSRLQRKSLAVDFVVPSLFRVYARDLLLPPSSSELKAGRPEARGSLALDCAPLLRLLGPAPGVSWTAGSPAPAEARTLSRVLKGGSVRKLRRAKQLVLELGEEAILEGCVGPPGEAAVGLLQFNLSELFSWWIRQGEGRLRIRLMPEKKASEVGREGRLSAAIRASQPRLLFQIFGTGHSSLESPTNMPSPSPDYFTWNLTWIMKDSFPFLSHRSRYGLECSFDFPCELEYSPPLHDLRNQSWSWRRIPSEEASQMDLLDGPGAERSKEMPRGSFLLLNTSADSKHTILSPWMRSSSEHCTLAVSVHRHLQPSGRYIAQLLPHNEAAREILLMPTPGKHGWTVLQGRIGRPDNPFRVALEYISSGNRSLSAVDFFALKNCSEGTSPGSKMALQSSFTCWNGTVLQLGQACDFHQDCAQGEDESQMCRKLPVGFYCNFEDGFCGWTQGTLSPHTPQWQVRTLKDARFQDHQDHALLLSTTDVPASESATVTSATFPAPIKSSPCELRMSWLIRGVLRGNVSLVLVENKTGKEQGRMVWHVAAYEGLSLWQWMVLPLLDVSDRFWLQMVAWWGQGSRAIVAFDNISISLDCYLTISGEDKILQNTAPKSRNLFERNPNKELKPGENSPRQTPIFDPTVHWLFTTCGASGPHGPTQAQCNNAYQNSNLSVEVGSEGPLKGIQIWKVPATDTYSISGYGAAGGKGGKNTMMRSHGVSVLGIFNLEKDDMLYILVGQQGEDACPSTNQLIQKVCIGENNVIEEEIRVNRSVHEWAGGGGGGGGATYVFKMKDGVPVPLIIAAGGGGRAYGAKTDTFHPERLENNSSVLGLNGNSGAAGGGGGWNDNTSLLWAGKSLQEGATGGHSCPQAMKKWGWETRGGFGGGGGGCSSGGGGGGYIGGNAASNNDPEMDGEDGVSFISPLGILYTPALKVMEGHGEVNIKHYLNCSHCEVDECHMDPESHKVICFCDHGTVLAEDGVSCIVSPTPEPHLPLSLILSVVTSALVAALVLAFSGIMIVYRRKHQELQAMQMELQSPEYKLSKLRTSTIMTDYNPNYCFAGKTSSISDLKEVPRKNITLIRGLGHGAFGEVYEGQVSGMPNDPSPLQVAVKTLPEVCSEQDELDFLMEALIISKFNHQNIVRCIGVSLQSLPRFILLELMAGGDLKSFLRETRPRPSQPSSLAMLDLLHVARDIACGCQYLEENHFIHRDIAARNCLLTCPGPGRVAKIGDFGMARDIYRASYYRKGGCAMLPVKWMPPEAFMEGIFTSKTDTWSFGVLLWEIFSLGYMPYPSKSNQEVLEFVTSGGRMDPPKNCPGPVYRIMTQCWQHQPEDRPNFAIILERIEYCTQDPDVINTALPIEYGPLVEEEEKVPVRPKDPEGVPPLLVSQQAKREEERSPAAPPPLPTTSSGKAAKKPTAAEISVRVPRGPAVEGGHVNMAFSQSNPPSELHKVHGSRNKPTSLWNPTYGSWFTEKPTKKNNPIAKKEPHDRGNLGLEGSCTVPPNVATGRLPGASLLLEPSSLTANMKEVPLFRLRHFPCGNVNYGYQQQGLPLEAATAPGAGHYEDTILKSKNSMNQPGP
Experimental: as §1

Abl, sequence (P00519 whole entry, species assumed): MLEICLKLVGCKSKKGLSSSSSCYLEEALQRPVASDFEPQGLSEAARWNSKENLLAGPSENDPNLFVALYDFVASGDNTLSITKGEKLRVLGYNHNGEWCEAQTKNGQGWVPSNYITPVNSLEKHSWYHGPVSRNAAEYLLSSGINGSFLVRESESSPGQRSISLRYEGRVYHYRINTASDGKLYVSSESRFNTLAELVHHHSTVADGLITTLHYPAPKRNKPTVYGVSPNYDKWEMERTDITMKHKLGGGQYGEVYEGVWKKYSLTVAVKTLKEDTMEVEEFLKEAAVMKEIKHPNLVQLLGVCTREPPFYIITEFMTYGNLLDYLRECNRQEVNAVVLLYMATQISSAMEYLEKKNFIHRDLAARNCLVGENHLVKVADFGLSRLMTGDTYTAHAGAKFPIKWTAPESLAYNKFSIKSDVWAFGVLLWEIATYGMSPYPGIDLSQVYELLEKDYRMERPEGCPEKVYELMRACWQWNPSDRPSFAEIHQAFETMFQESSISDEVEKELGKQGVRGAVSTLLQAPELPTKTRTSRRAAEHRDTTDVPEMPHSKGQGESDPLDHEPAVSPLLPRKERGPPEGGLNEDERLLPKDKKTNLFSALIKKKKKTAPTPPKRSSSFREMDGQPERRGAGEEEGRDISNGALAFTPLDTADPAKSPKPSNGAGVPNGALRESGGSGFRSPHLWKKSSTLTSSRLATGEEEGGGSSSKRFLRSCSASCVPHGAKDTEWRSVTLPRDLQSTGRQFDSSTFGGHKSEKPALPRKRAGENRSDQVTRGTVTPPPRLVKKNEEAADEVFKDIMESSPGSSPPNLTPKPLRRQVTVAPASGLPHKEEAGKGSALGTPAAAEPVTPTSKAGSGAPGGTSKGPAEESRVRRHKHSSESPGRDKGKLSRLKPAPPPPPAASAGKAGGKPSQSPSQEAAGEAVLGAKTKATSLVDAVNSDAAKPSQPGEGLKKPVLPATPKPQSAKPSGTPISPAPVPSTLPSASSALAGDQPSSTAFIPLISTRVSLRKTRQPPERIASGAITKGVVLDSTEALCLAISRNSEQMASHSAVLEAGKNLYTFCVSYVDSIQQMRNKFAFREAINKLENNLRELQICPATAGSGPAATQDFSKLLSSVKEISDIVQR

Substance	phosphorylation by Abl (ELISA) (Abl)	phosphorylation by Lyn (ELISA) (Lyn)	phosphorylation by Csk (ELISA) (Csk)	phosphorylation by ALK kinase (ELISA), compared with YFF peptide (ALK kinase)
FGMARDIYRASFFRKGGKbGG (FGMARDIYRASFFRKGGK(Biotin)GG) [YFF peptide, known peptide substrate of ALK in the literature, reference compound]	lack of affinity	lack of affinity	lack of affinity	–
FDMDRDIYTNTFFRKGGKbGG (FDMDRDIYTNTFFRKGGK(Biotin)GG) [ALAStide-B, ALK-specific biosensor peptide; Kb is biotinylated lysine]	not phosphorylated	not phosphorylated	not phosphorylated	comparable phosphorylation level with YFF peptide
FDMDRDIYRMSFFRKGGKbGG (FDMDRDIYRMSFFRKGGK(Biotin)GG) [ALAStide-A, ALK-specific biosensor peptide; Kb is biotinylated lysine]	not phosphorylated	not phosphorylated	not phosphorylated	higher phosphorylation activity than YFF and ALAStide-B
